Reference: publication PMC5823465 (PLoS Neglected Tropical Diseases, 2018)

B1: VIS513 (antibody, V domains shown)
VH: QVQLVQSGAEVKKPGASVKVSCKAGFNIKDVYMSWVRQAPEQGLEWMGRIDPENGDTKYDPKLQGRVTMTADTSTNTAYMELRSLRSDDTAVYYCARGWEGFAYWGQGTLVTVSS
VL: DIVMTQSPASLAVSLGQRATISCRASENVDKYGNSFMHWYQQKPGQPPKLLIYRASELQWGVPDRFSGSGSGTDFTLTISSLQAEDVAVYYCQRSNEVPWTFGQGTKLEIK

Legend:
Assay in all cases: ELISA; competition ELISA, KD in solution at equilibrium: serial dilutions of EDIII mixed with antibody at 0.2 nM, incubated overnight; unbound or singly bound antibody measured on Maxisorp plates coated with EDIII-DV1, detected with HRP rabbit anti-human IgG; mass action model adjusted for antibody bivalence
VIS513 = target: VIS513
[1] = target: T1, EDIII domain of the E protein, DENV2 NGC, wild type (Dengue virus type 2, strain NGC …, UniProt A0A097PIE2, strain); settings: both partners purified
T1 construct: also called DENV2 NGC WT; DV2-NGC

[2] = target: EDIII domain of the E protein, DENV3 H87, wild type (Dengue virus type 3, strain H87 …, UniProt A0A0U2UQM7, strain); settings: both partners purified
[3] = target: EDIII domain of the E protein, DENV1 HAW, wild type (Dengue virus type 1, strain Hawaii 1944 …, UniProt A0A097PIH4, strain); settings: both partners purified

Row | Molecule | Kd (VIS513) [nM] | other results
1 | EDIII domain of the E protein, DENV4 BC287, K310R (domain or fragment) | 618 | –
2 | EDIII domain of the E protein, DENV3 H87, L301S (domain or fragment) | 1.7 | –
3 | EDIII domain of the E protein, DENV2 NGC, K310R (domain or fragment) | 0.79 | –
4 | EDIII domain of the E protein, DENV3 H87, K308R (domain or fragment) | 170 | –
5 | EDIII domain of the E protein, DENV1 HAW, K310R (domain or fragment) | 0.39 | –
6 | B1 | – | Kd [1]: < 0.1 nM; Kd [2]: 1.5 nM; Kd [3]: < 0.1 nM
